Reference: the nanobody polyreactivity screen of Harvey et al. (2022)

Experiment: yeast display, Sf9 membrane polyspecificity reagent, FACS + sequencing; frameworks hold sequencing errors
In short: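 A synthetic nanobody library was expressed on Saccharomyces cerevisiae BJ5465 by galactose induction for 36–48 hours. The library was stained for 1 hour at 4 °C with 10% biotinylated, detergent-solubilized Sf9 membrane reagent and enriched with streptavidin microbeads before FACS. Low and high (top ~1%) gates were set on anti-HA fluorescence for expression and streptavidin fluorescence for reagent binding, and each polyreactivity label reflects the gate of origin.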

Row | Sequence | polyreactivity (PSR sort gate)
1 | QVQLVESGGGLVQAGGSLRLSCAASGLIFPQYAMGWYRQAPGKERELVAAISLSGTSTNYADSVKGRFTISRDNAKNTVYLQMNSLKPEDTAVYYCLADQRITQSVELEYDSWGQGSQVTVSS | low polyreactivity
2 | QFQLVESGGGLVQEGGSLRLSCAPSGSTFRFYAMGWYRQSPGKERELVAVISSAGSTNYADSVKGRFTISRDNAKNTVYLQMNSLKPEDTAVYYCAAYRRYSIYNYWGEGTQVTVSS | high polyreactivity
3 | QVQLVESGGGLVQAGGSLRLSCAASGRTFVTNAMGWYRQAPGKERELVAAITQRGGRTYYADSVKGRFTISRDNAKNTVYLQMNSLKPEDTAVYYCAASYYGWSARYDTLGIYEYWGQGTQVTVSS | high polyreactivity
4 | QVQLVESGGGLVQAGGSLRLSCAASGSPFSRNAMGWYRPAPGKEREMVAAISYSGGSTYYADSVKGRFTISRDNAKNTVYLQLNSLKPEDTAVYYCNTYIVNYSGQEMVYWGQGTQVTVSS | high polyreactivity
5 | QVQLVESGGGLVQAGGSLRLSCAASGITFTYNAMGWYRQAPGKERELVAAITWSGGSTYYADSVKGRFTISRDNAKYTVYLQMNSLKPEDTAVYYCNAKHFAYSVAHPYLRYGYDYWGQGTQVTVSS | low polyreactivity
6 | QDQLVESGGGLDQAGGSLRLSCAASGRIFARYAMGWYRLAPGKERELVAALSRGGSTKYADSVKGRFTISRDNAKNTVYLQLHSLQQEDTAVYYCARQLWGSQYGAYYAGDYWGQVTQVTVSS | low polyreactivity
7 | QFQLVESGGGLDQAGGSLRLSCAASGFTLNRNAMGWYRQAPGKETELVAAITRGGRTYYADSVKGRFTISRDNAKNTVYLQMNSLKPEDTAVYYCARTVGYRTLLESDSWGQGTQVTVSS | high polyreactivity
8 | QVQLVESGGGLVQAGGSLRLSCAASGITFISYAMGWYRQAPGKERELVAGITSDDSTSYADSVKGRFTISRDNAKNTVYLQMNSVKPEDTAVYYCAARSYTLRTSTGRLYRYYYWGQGTQVTVSS | high polyreactivity
9 | QVQLVESGGGLVQAGGSLRLSCAASGITLPYYAMGWYRQAPGKERELVAGISSRGGSTYYADSVKGRFTISRDNAKNTVYLQMNSLKPEDTAVYYCAAKVASTRLGPAYGYWGQGTQVTVSS | high polyreactivity
10 | QVQLVESGGGLVQAGGSLRLSCAASGFIFSYLYAMGWYRQAPGKERELVAAITYNGGSTYYADSVKGRFTISRDIAKNTVYLQMNSLKPEDTAVYYCAARKRYRANSYWEMAYWGQGTQVTVSS | high polyreactivity
11 | QVQLVESGGGLVQAGGSLRLSCAASGFTSWHNDMGRYRQATGKERELVAAIDTGTGTYYADSVKGRFTISRDNAKNTVYLQLYSLKPEDTAVYYCAKDDLLVVRIVWFDYWGLGTQVTVSS | low polyreactivity
12 | QVQLVESGGGLVQAGGSLRLSCAASGSIFYTYAMGWYRQAPGKERELVAAITYSGGSTYYADSVKGRFTISRDNAKNTVYLQMNSLKPEDTAVYYCAAYVIPGLGAEYGYWGQGTQVTVSS | low polyreactivity
13 | QVQLVESGGGLVQAGGSLRLSCAASGSIFRTYVMGWYRQAPGKERELVAAITASGGRTYYADSVKGRFTISRDNAKNSVYLQMNSLKPEDTAVYYCAAVSRGRYADSFDHWGQGTQVTVSS | high polyreactivity
14 | QVQLVESGGGLVQAGGSLRLSCAASGIIFRHNAMGWYRQAPGKERELVAAISSGGNTYYADSVKGRFTISRDNAKNTVYLQMNSLKPEDTAVYYCAADVQDRYHRAWYDYWGQGTQVTVSS | low polyreactivity
15 | QVQLVESGGGLVQAGGSLRLSCAAYASTLANYALGWYRQSPGKERELVAAINSGGSTYYADSVKGRFTISRDNAKNTVYLQMNSLKPEDTAVYYCAARYASPRYKSKMDYWGQGTQVTVSS | high polyreactivity
16 | QVQLVESGGGLVQAGGSLRLSCAASGFTFPAYTMGWYRQAPGKERELVSAITSSGGNTYYADSVKGRFTISRDNAKNTVYLQMNSLKPEDTAVYYCSTVSVRGPSYDHVRYDYWGQGTQVTVSS | low polyreactivity
17 | QVQLVESGGGLVQAGGSLRLSCAASGFIFSYNAMGWYRQAPGKERELVAAISSRGGSTYYADSVMGRFTISRDNAKNTVYLQMNSLKPEDTAVSYCAVASRRVYTAPSDYWGQGTQVTVSS | high polyreactivity
18 | QVQLVESGGGLVQAGGSLRLTCAASGIIFGHYAMGWYRQAPGKERELVAAITASSGNTYYADSVKGRFTISRDNAKNTVYLQMNSLKPEDTAVYYCAAVSYSSYRYDYWGQGTQVTVSS | high polyreactivity
19 | QVQLVESGGGLVQAGGSLRLSCAASGSTFGRNAMGWYRQAPGKERELVAAISKTGGSTYYADSVKGRFTISRDNAKNTVYLQMNSLKPEDTAVYYCAARIRGFRTYYYWGQGTQVTVSS | high polyreactivity
20 | QVQLVESGGGLVQAGGSLRLSCAASGRIFRGNAMGWYRQAPGKERELVATITKRGGSTYYADSVKGRFTISRDNAKNTVYLQMNSLKPEDTAVYYCNTRTYGYLTQKYDYWGQGTQVTVSS | high polyreactivity
21 | QVQLVESGGGLVQAGGSLRLSCAASGRTFSGYAMGWYRQAPGKERELVAAINYSDGSTYYADSVKGRFTISRDNAKNTVYLQMNSLKPEDTAVYYCNKVYRYVRYAYDYWGQGTQVTVSS | high polyreactivity
22 | QVQLVESGGGLVQAGGSLRLSCAASGRTFPYYAMGWYRQAPGKERELVAAISSSGGSTYYADSVKGRFTISRDNAKNTVYLQMNSLKPEDTAVYYCAATRGWLHSFARDDHDYWGQGTQVTVSS | high polyreactivity

Row | Sequence | polyreactivity (PSR sort gate)
23 | QVQLVESGGGLVHAGGSLRLSCASSGSTFFTNAMGWYRQAPGKERELVAAITINDGSTFYADSVKGRFTISRDNAKNTVYLQMNSLNPEDTAVYYCNADGVDLYDYWGQCTQVTVSS | low polyreactivity
24 | QVQHVESGGCLVQAGGSLRLSCAASGITFEWYAMGWYRQAPGKESELVADITSGDSTNYADSVKGRFTISRDNAQNTVYLQMNSLKPEDTAVYYWAATFIGQFFSWYYYWGQGTQVTVSS | low polyreactivity
25 | QVQLVESGGGLVQAGGSLRLSCAASGFTFSRYTMGWYRQAPGKERELVAAITSVGSTYYADSVKGRFTISRDNAKNTVYLQMNSLKPEDTAVYYCARTYSTWYYYWGQGTQVTVSS | high polyreactivity
26 | QVQLVESGGGLVQAGGSLRLSCAASGFIFAYNAMGWYRQAPGKERELVAAISSRGSRTYYADSVKGRFTISRDKAKNTVYLQMNSLKPEDTAVYYCAARYSRGGFGYWGQGTQVTVSS | high polyreactivity
27 | QVQLVESGGGLVQAGGSLRLSCAASGFIFAWYAMGWYRQAAGKERQLVATISSSGARTYYADSVKGRFTISRDNAKITVYLQMNSLKPEDTAVYYCAFGSVGRLKFYYWGQGTQVTVSS | high polyreactivity
28 | QVQLVESGGGLVQAGGSLRLSCAPSGFIFDGYTMGWYRQAPGKETELVAAITTSGTSTYYADSVKGRFTISRDNAKNTVYLQMNSLKPEDTAVYYCAARQYRHRVKYYYWGQGTQVTVSS | high polyreactivity
29 | QVQLVESGGGLVQAGGSLRLSCAASGSIFYRYAMAWYRQAPGKERELVAAISSTGSPYYADSVKGRFTISRDNAKNTVYLQRNSLKPEDTAVYYCAARQGYRSYRRYDDWGQGTQVTVSS | high polyreactivity
30 | QVQLQESGGGLVQAGGSLRLSCAASGSISRYYDMGLYRQAPGKEREFVAGISGGAITYYADSVKGRFTISRDNAKNTVYLQMNSLKPVDTAVYYCAADTGVYQYHSYWGQGTQVTVSS | low polyreactivity
31 | QVQLVESGGVLVQAGGSLRLSCAASGYIFGNYAMGWYRQAPGNERELVASIDSGGSTNYADSVKGRFTISRDNAKNTVYLQKNSLKPEDTAVYYWAARPTWNRGRSRKYWRYNYWAQGTQVTVSS | high polyreactivity
32 | QVQLVESGGGLVQAGGRLRLSCAASGSIFGRNAMGWYRAAPGKERELVAAITGSTYYADSVKGRFTSSRDNAKNTVYLQMNSLKPEDTAVYYCNADYDVGWTYDTEYNYWGQGTQVTVSS | low polyreactivity
33 | QVQLQESGGGLVQAGGSLRLSCAASGNIFLGGDKGWYRQAPGKEREFVAAISDGTSTNYADSVKGRFTISRDNAKNTVYLQMNSLKPEDTAVYYCAAQYRYQRYSYAMEYWGQGTQVTVSS | high polyreactivity
34 | QVQLVESGGGLDQAGGSLRLSCAASGSIFYTNAMGWYRQAPRKERELVAAITSADSTYYADSVKGRFTISRDNANNTVYLQMNSLKPEDTAFYYCANDVYYYYRWYEYWGQGTQVTVSS | high polyreactivity
35 | QLQLVESGGGLVQAGGSLRLSCAANGSTFWIYAMGWYRQAPGKERELVAAITLRSGSTYYADSVKGRFTMSRDNAKNTVYLQMNSLKPEDTAVYYCATDSWGVDRPNYNYWGQGTQVTVSS | low polyreactivity
36 | QVQLVESGGGLVQAGGSLRLSCAASGPTFSQNVMGWYRQAPGKERELVAGISSGDITDYADSVKGRFTISRDNAKNTVYLQMNSPKPEDTAVYYCTYYGKSGGYRYTYYYWGQGTQVTVSS | high polyreactivity
37 | QVQLVESGGGLFQAGVSLRLSCAASGLIFYGNAMGWYRQAPGKERELVAAITGGGGNTYYADSVKGRFTISRYYAKITVYLQMNSLKPEDTAVYYCATATSTAYVRYYYWGQGTQVTVSS | high polyreactivity
38 | QVQLDESGGGLVQAGGSLRLSCAASGHIFFYYTMGWSRQAPRKEREFVAGITIGGSTNYADSVKGRFTISRDNAKYTVYLQKNSLKPEDTAVYYCNVVTYVYIYSYWEYYYWGQGTQVTVSS | low polyreactivity
39 | QVQLVESGGGLVQAGGSLRLSCAASGFTLQQYTMGWYRQAPGKERELVAAISTSGVRTYYADSVKGRFTISRDNAKNTVYLQMNSLKPEDTAVYYCNAKVRKSRFYYWGQGTQVTVSS | high polyreactivity
40 | QVQLVESGGGLVQAGGSLRLSCAASGSIFTTYAMGWYIQAPGKERELVAVISRRGGSTYYADSVKGRFTISRDNAKNTDYLQMNSLKPEDTAVYFCNAAYVWYRIFVRRDYWGQGTQVTVSS | high polyreactivity
41 | QVQVVESGGGLVQAGGSLRLSCAASGSIFAYYAMGWYRQAPGKERELVAVISSDGSTYYADSVKGRFTISRDNAKNTVYLQMNSLKPEDTAVYYCAAYPGKYSRYNYWGQGTQVTVSS | high polyreactivity
42 | QDQLVESGGGFVQEGGSLRLSCDPSGRIFYGYVMGRYRQAHGKERELVAAISRRGGSTYYADSVKGRFTISRDNAKNTVYLQMNSMKPVVTAVDYCDAVLSFALVQYYGANRDDYWGQGTQVSVSS | high polyreactivity
43 | QVQLQESGGGLVQAGGSLRLSCAASGSIFDYVSMGWYRQAPREERELVVTITLGSNTYYADSVKGRFTISSDIGKNTVYLQMNSLNPEDTAVYYCAASALWGYVYPYWGLGTQVTVSS | high polyreactivity
